Measured values from doi:10.1101/2025.10.15.682582, “A recombinant norrin-derived growth factor retains the complete multifunctionality of human norrin” (bioRxiv, 2025).

Biological target: T1, rhFrizzled-4/FC Chimera (human, UniProt Q9ULV1 37-212)
T1 sequence (looked up): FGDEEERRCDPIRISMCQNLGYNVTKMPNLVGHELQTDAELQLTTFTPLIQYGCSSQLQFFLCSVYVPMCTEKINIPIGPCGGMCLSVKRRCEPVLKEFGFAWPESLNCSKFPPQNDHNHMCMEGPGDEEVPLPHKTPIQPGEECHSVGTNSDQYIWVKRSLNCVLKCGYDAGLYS
Experiment: cell-based or functional assay

B1: human recombinant norrin (ligand, UniProt Q00604 25-133, looked up)
chain: KTDSSFIMDSDPRRCMRHHYVDSISHPLYKCSSKMVLLARCEGHCSQASRSEPLVSFSTVLKQPFRSSCHCCRPQTSKLKALRLRCSGGMRLTATYRYILSCHCEECNS
With B1 as the binder, how does the “TCF/LEF firefly luciferase reporter in HEK-293 cells transfected with FZD4 and LRP5; average EC50 of 3 assays with human norrin” value read?
The value was 0.036 µg/mL.
